From patent US20160340659A1, “ACTIN BINDING PEPTIDES AND COMPOSITIONS COMPRISING SAME FOR INHIBITING ANGIOGENESIS AND TREATING MEDICAL CONDITIONS ASSOCIATED WITH SAME” (YISSUM RESEARCH AND DEVELOPMENT COMPANY OF THE HEBREW …, priority 2014, published 2016)

Legend:
[1] = target: T1, Rabbit muscle actin (Oryctolagus cuniculus, UniProt P68135); test: Peptide array screen for actin binding; settings: peptides on cellulose membrane; 5 μM actin; densitometry relative to K108-K133
T1 construct: Rabbit muscle actin (A2522, Sigma-Aldrich, St Louis, Mo.); purchased Sigma-Aldrich, St Louis, Mo; A2522; host or cells: rabbit muscle (tissue-derived)
Description: The peptides were acetylated at their N-termini and attached to a cellulose membrane via their C-termini through an amide bond. Peptide array (INTAVIS Bioanalytical Instruments AG, Koeln, Germany).
The array was immersed in 5 ml blocking solution (TBST containing 2.5% milk) for 4 hours with shaking, then washed once with blocking solution (30 sec.) and twice with TBST (5 min. each). 5 μM actin were dissolved in the blocking solution (˜1:3), and incubated with the array at 4° C. with shaking overnight. After washing with TBST (1×30 sec. and 2×5 min.) the array was incubated first with rabbit anti actin antibody diluted 1:100 in blocking solution for 4 hours at room temperature followed by washings three times with TBST (1×30 sec. and 2×5 min.). The array was then incubated with horseradish peroxidase-conjugated goat anti rabbit IgG antibody diluted 1:10,000 in blocking solution at room temperature for 2 hours followed by washing with TBST (1×30 sec. and 2×5 min.). Immunodetection was performed using chemiluminiscence with ECL reagents.
The modifications included an alanine scan, truncations and systematic replacements of each residue in each peptide by the corresponding D-amino acid residue and N-methylated residue, C terminal truncations and N terminal truncations. The array was screened for binding the actin protein.

[2] = target: actin (Oryctolagus cuniculus, UniProt P68135); test: Surface plasmon resonance (BIAcore) of actin binding; settings: actin on CM5 chip, 25° C.
Description: SPR was performed on a BIAcore 3000 instrument (BIAcore, Uppsala, Sweden). Actin was diluted in 100 mM CH3COONa pH 4.6 to a final concentration of 20 μg/ml (200 μl total) resulting in ˜1 ng immobilized actin on a CM5 BIAcore sensor chip (GE Healthcare Bio-Sciences AB) using the standard BIAcore amine coupling chemistry protocol. The CM5 chip allows four separate flow cells to be operated in the BIAcore 3000 instrument used in these experiments. Coupling is achieved by activating the surface of the sensor chips with equal volumes of 50 mM N-hydroxysuccimide (NHS)/200 mM Nethyl-N-(3-[…])-carboiimide (EDC) (BIAcore, AB, Uppsala, Sweden) to form activated carboxyl groups. An actin solution […] was run over the chip for 5 min at a rate of 10 μl/min, allowing the amine groups on the protein to react with the activated esters. In the final stage of immobilization, the surface was blocked by 1M ethanol amine, pH 8.0. The binding assay was performed by injecting the hRNASET2, trT2-49, trT2-49m or peptides solutions in running buffer (HBS—10 mM Hepes, 150 mM Sodium Chloride, 3 mM EDTA, 0.005% Polysorbate 20) at 5 different concentrations at a flow rate of 10 μl/min at 25° C. Injections were performed simultaneously over all four channels and blank surface (a plain dextran matrix, channel 1) was used as control. The net signal was obtained by subtracting the blank signal from the signal of the immobilized surface. The association phase for protein or peptides binding to actin was followed for 4 min, and dissociation phases were monitored for 3 min. Surface regeneration between consecutive binding cycles included a 1 min injection of 1 mM NaOH. The response was monitored as a function of time (sensorgram) at 25° C. Multi-concentration data were globally fit using BIA evaluation 3.2 software.
The strength of a two molecule interaction is characterized by the equilibrium dissociation (binding) constant KD=[P][L]/[PL], where [P] is the concentration of free protein (or peptide), [L] the concentration of ligand and [PL] the concentration of the complex. […]

[3] = test system: chick Chorio-Allantoic Membrane (CAM); test: Ex ovo CAM angiogenesis assay; assay type: in vivo, chicken; settings: 3 μg on paper disk daily for four days from day 8; compared to PBS control
Description: In this assay, in-vivo angiogenesis is assessed on live chick embryos grown in petri dishes. Fertilized eggs are cracked into a petri dish after a few (e.g. 3) days incubation at appropriate temperature (e.g. 37° C.) and humidity. In the following days, the embryos developed a vascular network, which can then easily be exposed to any treatment or combination of treatments, for example, via delivery onto absorbent disks placed on/about the developing vascular regions. Angiogenesis is scored by periodically (e.g. 1×/day, 2×/day, 1×/2 days, 1×/4 days, etc) counting the number of blood vessels around the disk.
Fertilized chicken eggs were incubated horizontally at 37° C. and humidity of 60-62% and cracked into Petri dishes at embryonic day 4. Incubation was continued under the same conditions. […] Treatment was given every day for four days, then, the number of blood vessels around the treated disks was counted.

[4] = target: T2, G-Actin from rabbit muscle (Oryctolagus cuniculus, UniProt P68135); test: ELISA actin binding assay (solid-phase, immobilized actin); settings: immobilized G-actin 500 ng/well
T2 construct: G-Actin from rabbit muscle; purchased Sigma-Aldrich, St Louis, Mo; host or cells: rabbit muscle (tissue-derived)
Description: Peptides corresponding to a variety of amino acid sequences in the region of human RNASET2 comprising helix 5 and helix 6 were synthesized and assayed for actin binding in an ELISA actin binding assay.
Solid-phase ELISA for RNASET2 peptide binding to immobilized actin was performed as modified from Mejean 1987 (Biochem. J. 244: 571-577) and Mejean 1992 (Eur. J Biochem. 209: 555-562). All steps were conducted at 37° C. Immuno-96 Microwell™ solid plates (Thermo Fisher Scientific, MA) coated with 500 ng/well of G-Actin from rabbit muscle (Sigma-Aldrich, St Louis, Mo.) in 100 ul of 0.05 M carbonate buffer, pH 9.5 (Sigma-Aldrich, Mo), incubated for 1 h and washed with 250 ul/well Tris Buffered Saline (TBS) (Sigma-Aldrich). The wells were blocked with 3% bovine serum albumin (BSA, Sigma-Aldrich) in 200 ul/well TBS for another 1 hour and washed with 250 ul/well TBS. The candidate peptides are then added at various concentrations (for example, serial dilutions giving 500, 250 or 125 ng/well) in 100 ul/well Tris Buffered Saline (TBS), incubated for 1 hour and washed 3 times with 250 ul/well TBS containing 0.05% Tween®20 (TBST, Sigma-Aldrich). Anti-T2 RNase (rabbit anti-rhtrRNASET2, Anilab, Israel, whole serum or antiserum) was then added, incubated for 1 hour and the plates washed 3 times with 250 ul/well TBST. Labeled second antibody [peroxidase-conjugated affinity pure goat-anti rabbit IgG (Jackson, Pa.)] was added at a dilution of 1:10:000 in 100 ul/well TBS, incubated for 1 hour and the plates washed twice with 250 ul/well TBST. After an additional wash with 250 ul/well TBS, 1-Step Ultra TMB-ELISA (TMB-3,3′,5,5′ Tetramethylbenzidine) (Thermo-Scientific) was added (100 ul/well) and after 15-25 min of incubation, the reaction was read at A650 using Infinite F50-TECAN ELISA READER (TECAN, Austria). Each assay was performed in triplicates.

[5] = test system: HUVEC; test: HUVEC tube formation assay on Matrigel; assay type: cell-based, human; settings: angiogenin or VEGF induced; 2 μM peptide
Description: FIGS. 6A-6D illustrate in-vitro inhibition of angiogenesis in the HUVEC model by T2 peptides. HUVEC cells plated on Matrigel™ were exposed to 2 μM of T2 peptides A103-Q159 (SEQ ID NO: 60), K108-K133 (SEQ ID NO: 57) or K108-L123 (SEQ ID NO: 67), in addition to 1 μg/ml of angiogenin or VEGF as the angiogenic agent, as indicated. Control wells received PBS. FIG. 6B-Results were assessed by imaging software, and quantified, and expressed relative to tube formation with angiogenin or VEGF alone (100%) Column 1=angiogenin, column 2=angiogenin+SEQ ID NO: 60, column 3=angiogenin+SEQ ID NO: 57, column 4=angiogenin+[…], Column 5=VEGF, column 6=VEGF+SEQ ID NO: 60, column 7=VEGF+SEQ ID NO: 57, column 8=VEGF+[…]. FIGS. 6C and 6D illustrate the inhibitory effect of truncated human T2 polypeptide trT2-49m (SEQ ID NO: 129) on angiogenin and VEGF induced HUVEC tube formation. Note the significant inhibition of HUVEC tube formation by all of the T2 peptides assayed, and in particular, K108-K133 (SEQ ID NO: 57);
HUVEC (CC-2519)(fresh or commercially provided) are maintained in M199 rrrediurn supplemented with 20% FCS, 1% glutamine, 1% antibiotic-antimycotic solution, ECGF, and heparin, plated in a 96-well plate (14×10^3 cells/well) previously coated with growth factor-depleted Matrigel™ (BD Biosciences), in M199 medium containing 5% FCS and 0.005% ECGF. The wells are supplemented with candidate T2 RNase peptides or PBS, and angiogenic growth factors (1 μg/ml angiogenin, bFGF or VEGF) to a final volume of 120 pl. Plates are incubated (overnight), photographed and the extent of tube formation (angiogenesis) assessed.

## KKYFGRSLEL [SEQ ID NO: 131]
[1]
  actin binding of immobilized peptides: significant actin binding

## SEQ ID NO: 1: mature full length human RNASET2, T2 family ribonuclease
[2]
  Ka × 10^3: 1.44 ×10^3 1/Ms
[3]
  inhibition of angiogenesis (number of blood vessels around disk): effective in inhibiting angiogenesis

## KKYFGRSLELYR [SEQ ID NO: 62]
[1]
  actin binding of immobilized peptides: significant actin binding

## LYREL [SEQ ID NO: 132]
[1]
  actin binding of immobilized peptides: significant actin binding

## SEQ ID NO: 63: peptide representing amino acids 103-141 of RNASET2 (ALNSQKKYFGRSLELYRELDLNSVLLKLGIKPSINYYQV)
[4]
  actin binding on ELISA: moderate

## SEQ ID NO: 67: peptide K108-L123 of human RNASET2, 16 aa
[5]
  inhibition of HUVEC tube formation: unable to inhibit tube formation
